Assay results taken from article PMC5350102, “Efficient Binding of the NOS1AP C-Terminus to the nNOS PDZ Pocket Requires the Concerted Action of the PDZ Ligand Motif, the Internal ExF Site and Structural Integrity of an Independent Element” (Frontiers in Molecular Neuroscience, 2017).
Where “and” joins values, the source holds several entries; their conditions need not be identical. Equal entries are not always repeated. Where no end group is shown, it is not given here. fluorescein = fluorescein label at the peptide N-terminus

B1: His-TAT-NOS1AP[400–506], denatured (domain or fragment, human, UniProt O75052 400-506, looked up)
chain: HSPPLGAGLADFAHPAGSPLGRRDCLVKLECFRFLPPEDTPPPAQGEALLGGLELIKFRESGIASEYESNTDESEERDSWSQEELPRLLNVLQRQELGDGLDDEIAV
notes: Same construct as m10, but prepared under denaturing conditions
B2: Peptide EIAV (NH2-DSLDDEIAV-COOH) (peptide)
peptide: H-DSLDDEIAV-OH
notes: last 9 amino acids of rat/mouse NOS1AP; also called NOS1AP-9C; DSLDDEIAV (NOS1AP-9C); source: synthetic peptide, synthesized by Xigen AG (Lausanne, Switzerland)
B3: NOS1AP[400–506] F431A cleaved from GST (domain or fragment, human, UniProt O75052 400-506, looked up)
chain: HSPPLGAGLADFAHPAGSPLGRRDCLVKLECARFLPPEDTPPPAQGEALLGGLELIKFRESGIASEYESNTDESEERDSWSQEELPRLLNVLQRQELGDGLDDEIAV
B4: NOS1AP[432–506] cleaved from GST (domain or fragment, human, UniProt O75052 432-506, looked up)
chain: RFLPPEDTPPPAQGEALLGGLELIKFRESGIASEYESNTDESEERDSWSQEELPRLLNVLQRQELGDGLDDEIAV
B5: His-TAT-NOS1AP[400–503], denatured (domain or fragment, human, UniProt O75052 400-503, looked up)
chain: HSPPLGAGLADFAHPAGSPLGRRDCLVKLECFRFLPPEDTPPPAQGEALLGGLELIKFRESGIASEYESNTDESEERDSWSQEELPRLLNVLQRQELGDGLDDE
notes: also called denatured NOS1AP[400–503]; NOS1AP 400-503 His-TAT fusion, Denatured
B6: His-TAT-NOS1AP[400–503] E429A, denatured (domain or fragment, human, UniProt O75052 400-503, looked up)
chain: HSPPLGAGLADFAHPAGSPLGRRDCLVKLACFRFLPPEDTPPPAQGEALLGGLELIKFRESGIASEYESNTDESEERDSWSQEELPRLLNVLQRQELGDGLDDE
notes: NOS1AP, human, residues 400-503 with E429A in the ExF motif
B7: F-GDLV (fluorescein-RRRRWGDLV) (peptide)
peptide: fluorescein-RRRRWGDLV
notes: also called F-GLDV; source: synthetic peptide, bought: Genic Bio (Shanghai, China)
B8: Peptide GDLV (NH2-RRRRWGDLV-COOH) (peptide)
peptide: H-RRRRWGDLV-OH
notes: also called unlabelled GDLV; source: synthetic peptide, bought: Genic Bio (Shanghai, China)

Key:
Details in all cases: both partners purified
GST-nNOS[1–155] = molecular target: T1, GST-nNOS[1–155] (human, UniProt P29475-1 1-155); experiment: pull-down; solid-phase no-wash binding assay: 5 μl beads bound to 1 μg GST-fused nNOS protein (or GST for background) rotated with His-TAT-NOS1AP peptides for 1 h at 4°C; unbound removed by centrifugation in filter plates, no wash; bound peptide quantified by fluorescent immunoblot; GST background subtracted; 1-site quadratic fit
T1 construct: also called GST-fused nNOS protein

His-nNOS[1–155] [1] = molecular target: T2, His-nNOS[1–155] (human, UniProt P29475-1 1-155); experiment: fluorescence polarisation; competition FP: 1 μM F-GDLV, 4 μM His-nNOS(1–155), increasing competitor; approximate Kc (dissociation constant of the competitor, affinity for the nNOS PDZ pocket) from the single-site competition formula
T2 construct: Two batches were used

His-nNOS[1–155] [2] = molecular target: T2, His-nNOS[1–155]; experiment: fluorescence polarisation; increasing His-nNOS(1–155) added to 1 μM F-GDLV in 50 mM Tris pH 7.4, 100 mM NaCl, 1 mM EDTA, 0.1% BSA; one-site quadratic fit; triplicates from each of two nNOS batches
His-nNOS[1–155] [3] = molecular target: T2, His-nNOS[1–155]; experiment: as above; remark: listed apart in the source

Binder	Kd (GST-nNOS[1–155])	Ki (His-nNOS[1–155] [1])	further results
B1	2.4 µM	–	–
B2	–	> 300 µM	–
B3	–	> 10 µM	–
B4	–	> 10 µM	–
B5	5.3 µM	–	–
B6	99 µM	–	–
B7	–	–	Kd (His-nNOS[1–155] [2]): 10.2 µM and 11.2 µM; Kd (His-nNOS[1–155] [3]): 10.7 µM
B8	–	10.7 µM	–
